Laboratory results taken from paper PMC5745067 (Neuron, 2017).

B1: extracellular domain of rat NLGN2 (Val43-His612, containing the site A insert) (domain or fragment, UniProt Q62888-1 43-612, looked up)
chain: VVNTAYGRVRGVRRELNNEILGPVVQFLGVPYATPPLGARRFQPPEAPASWPGVRNATTLPPACPQNLHGALPAIMLPVWFTDNLEAAATYVQNQSEDCLYLNLYVPTEDGPLTKKRDEATLNPPDTDIRDSGKKPVMLFLHGGSYMEGTGNMFDGSVLAAYGNVIVATLNYRLGVLGFLSTGDQAAKGNYGLLDQIQALRWLSENIAHFGGDPERITIFGSGAGASCVNLLILSHHSEGLFQKAIAQSGTAISSWSVNYQPLKYTRLLAAKVGCDREDSTEAVECLRRKSSRELVDQDVQPARYHIAFGPVVDGDVVPDDPEILMQQGEFLNYDMLIGVNQGEGLKFVEDSAESEDGVSASAFDFTVSNFVDNLYGYPEGKDVLRETIKFMYTDWADRDNGEMRRKTLLALFTDHQWVAPAVATAKLHADYQSPVYFYTFYHHCQAEGRPEWADAAHGDELPYVFGVPMVGATDLFPCNFSKNDVMLSAVVMTYWTNFAKTGDPNQPVPQDTKFIHTKPNRFEEVVWSKFNSKEKQYLHIGLKPRVRDNYRANKVAFWLELVPHLHNLH
B2: MDGA1 C2 (Ig1–Ig3; Y22-K330) (domain or fragment, human, UniProt Q8NFP4-1 22-330, looked up)
chain: YAPAQAQIVHAGQACVVKEDNISERVYTIREGDTLMLQCLVTGHPRPQVRWTKTAGSASDKFQETSVFNETLRIERIARTQGGRYYCKAENGVGVPAIKSIRVDVQYLDEPMLTVHQTVSDVRGNFYQEKTVFLRCTVNSNPPARFIWKRGSDTLSHSQDNGVDIYEPLYTQGETKVLKLKNLRPQDYASYTCQVSVRNVCGIPDKAITFRLTNTTAPPALKLSVNETLVVNPGENVTVQCLLTGGDPLPQLQWSHGPGPLPLGALAQGGTLSIPSVQARDSGYYNCTATNNVGNPAKKTVNLLVRSMK
modifications: TAMRA label ((5/6)-TAMRA-SE) in the FP assay
B3: MDGA1 C4 (Ig1–Ig4; Y22-I433) (domain or fragment, human, UniProt Q8NFP4-1 22-433, looked up)
chain: YAPAQAQIVHAGQACVVKEDNISERVYTIREGDTLMLQCLVTGHPRPQVRWTKTAGSASDKFQETSVFNETLRIERIARTQGGRYYCKAENGVGVPAIKSIRVDVQYLDEPMLTVHQTVSDVRGNFYQEKTVFLRCTVNSNPPARFIWKRGSDTLSHSQDNGVDIYEPLYTQGETKVLKLKNLRPQDYASYTCQVSVRNVCGIPDKAITFRLTNTTAPPALKLSVNETLVVNPGENVTVQCLLTGGDPLPQLQWSHGPGPLPLGALAQGGTLSIPSVQARDSGYYNCTATNNVGNPAKKTVNLLVRSMKNATFQITPDVIKESENIQLGQDLKLSCHVDAVPQEKVTYQWFKNGKPARMSKRLLVTRNDPELPAVTSSLELIDLHFSDYGTYLCMASFPGAPVPDLSVEVNI
modifications: TAMRA label ((5/6)-TAMRA-SE) in the FP assay
B4: MDGA1 C8 (Ig1–Ig2; Y22-T237) (domain or fragment, human, UniProt Q8NFP4-1 22-237, looked up)
chain: YAPAQAQIVHAGQACVVKEDNISERVYTIREGDTLMLQCLVTGHPRPQVRWTKTAGSASDKFQETSVFNETLRIERIARTQGGRYYCKAENGVGVPAIKSIRVDVQYLDEPMLTVHQTVSDVRGNFYQEKTVFLRCTVNSNPPARFIWKRGSDTLSHSQDNGVDIYEPLYTQGETKVLKLKNLRPQDYASYTCQVSVRNVCGIPDKAITFRLTNTT
modifications: TAMRA label ((5/6)-TAMRA-SE) in the FP assays; no label told for the crystals

Legend:
NLGN2-Fc = NLGN2-Fc (UniProt Q8NFZ4); assay: cell-surface binding assay; conditions: cited from earlier work
neurexin 1β = neurexin 1β (UniProt P58400); assay: SPR; conditions: cited from earlier work
crystal structure = target: the molecule itself; assay: crystal structure
[1] = target: B1; assay: fluorescence polarisation

Sequence of NLGN2-Fc (Q8NFZ4 15-677): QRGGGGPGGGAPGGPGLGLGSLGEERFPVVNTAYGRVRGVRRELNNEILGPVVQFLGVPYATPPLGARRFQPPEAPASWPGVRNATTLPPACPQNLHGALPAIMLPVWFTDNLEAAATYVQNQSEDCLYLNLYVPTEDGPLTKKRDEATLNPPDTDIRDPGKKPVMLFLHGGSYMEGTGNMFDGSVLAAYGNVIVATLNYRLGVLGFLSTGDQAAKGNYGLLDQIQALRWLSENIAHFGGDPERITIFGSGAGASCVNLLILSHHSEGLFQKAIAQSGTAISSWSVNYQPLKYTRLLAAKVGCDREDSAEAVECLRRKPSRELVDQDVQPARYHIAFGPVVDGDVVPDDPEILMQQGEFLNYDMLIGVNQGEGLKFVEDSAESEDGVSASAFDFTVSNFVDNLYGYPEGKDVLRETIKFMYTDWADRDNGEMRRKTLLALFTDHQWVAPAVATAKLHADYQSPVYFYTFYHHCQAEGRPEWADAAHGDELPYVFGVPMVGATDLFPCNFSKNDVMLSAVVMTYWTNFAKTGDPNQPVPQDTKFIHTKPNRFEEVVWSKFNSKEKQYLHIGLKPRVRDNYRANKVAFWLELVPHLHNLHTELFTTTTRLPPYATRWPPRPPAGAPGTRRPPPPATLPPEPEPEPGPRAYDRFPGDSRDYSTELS
Sequence of neurexin 1β (P58400 51-396): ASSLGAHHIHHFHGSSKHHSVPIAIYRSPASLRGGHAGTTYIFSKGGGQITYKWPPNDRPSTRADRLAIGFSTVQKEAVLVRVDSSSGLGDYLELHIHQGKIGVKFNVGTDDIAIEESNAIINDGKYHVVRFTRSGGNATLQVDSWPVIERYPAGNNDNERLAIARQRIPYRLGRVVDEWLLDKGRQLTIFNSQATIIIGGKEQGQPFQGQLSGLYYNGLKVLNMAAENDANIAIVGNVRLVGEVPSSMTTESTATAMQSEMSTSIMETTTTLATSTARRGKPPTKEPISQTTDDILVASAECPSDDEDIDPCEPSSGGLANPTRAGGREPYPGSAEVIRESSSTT

In the case of MDGA1 (from UniProt Q8NFP4), the Kd (NLGN2-Fc) is given as 7 nM.

For MDGA2 (from UniProt Q7Z553), the Kd (NLGN2-Fc) is listed as 46 nM.

In the case of NLGN1 (from UniProt Q62765), the Kd (neurexin 1β) is given as greater than 10000 nM.

With B1 the “stoichiometry N” value (crystal structure) was 2.

B2: binds [1].

B3: binds [1].

B4 showed a Kd [1] of 21 nM.
